The values below come from PMC4154870, “The Cofilin Phosphatase Slingshot Homolog 1 (SSH1) Links NOD1 Signaling to Actin Remodeling” (PLoS Pathogens, 2014).

In this test the target is T1, GFP-SSH1 (human, UniProt Q8WYL5 1-1049).
T1 construct: Slingshot homolog 1 (SSH1); also called EGFP-SSH1; WT SSH1; source: HeLa, transiently transfected, in fixed cells
T1 sequence (looked up): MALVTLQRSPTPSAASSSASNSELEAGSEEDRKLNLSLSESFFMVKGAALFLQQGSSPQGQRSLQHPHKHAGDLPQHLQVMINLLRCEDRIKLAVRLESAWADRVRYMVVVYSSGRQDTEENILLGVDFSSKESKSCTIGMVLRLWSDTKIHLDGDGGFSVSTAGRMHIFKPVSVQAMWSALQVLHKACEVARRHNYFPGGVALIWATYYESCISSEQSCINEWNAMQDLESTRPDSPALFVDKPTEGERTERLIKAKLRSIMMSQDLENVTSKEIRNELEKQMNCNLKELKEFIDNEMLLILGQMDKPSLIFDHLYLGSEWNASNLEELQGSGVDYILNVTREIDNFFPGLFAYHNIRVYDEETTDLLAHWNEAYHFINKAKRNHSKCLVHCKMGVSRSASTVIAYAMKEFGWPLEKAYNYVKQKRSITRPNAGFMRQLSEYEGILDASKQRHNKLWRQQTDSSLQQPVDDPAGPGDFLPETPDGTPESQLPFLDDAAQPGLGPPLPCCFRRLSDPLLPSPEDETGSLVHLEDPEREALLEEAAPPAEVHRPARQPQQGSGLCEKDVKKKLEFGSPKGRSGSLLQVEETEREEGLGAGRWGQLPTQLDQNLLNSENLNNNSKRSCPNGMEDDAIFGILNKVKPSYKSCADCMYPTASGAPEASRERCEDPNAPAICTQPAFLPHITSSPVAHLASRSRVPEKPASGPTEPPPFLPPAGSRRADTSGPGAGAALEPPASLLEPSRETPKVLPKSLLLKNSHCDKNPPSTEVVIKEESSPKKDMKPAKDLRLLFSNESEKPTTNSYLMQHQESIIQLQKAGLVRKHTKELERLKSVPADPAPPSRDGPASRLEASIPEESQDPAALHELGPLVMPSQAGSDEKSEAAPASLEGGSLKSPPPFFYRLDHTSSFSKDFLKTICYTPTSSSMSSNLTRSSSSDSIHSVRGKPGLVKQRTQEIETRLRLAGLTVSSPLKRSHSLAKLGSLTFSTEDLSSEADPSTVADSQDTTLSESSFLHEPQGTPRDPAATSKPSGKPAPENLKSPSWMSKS
As to the kind of experiment: proximity ligation; in situ PLA (Duolink) in transiently transfected HeLa cells, fixed 24 h after transfection; rabbit GFP-specific and mouse Flag-specific primary antibodies; spot area per cell quantified by automated microscopy. Particulars: partners not purified.

B1: Flag-NOD1 (receptor, human, UniProt Q9Y239 1-953, looked up)
chain: MEEQGHSEMEIIPSESHPHIQLLKSNRELLVTHIRNTQCLVDNLLKNDYFSAEDAEIVCACPTQPDKVRKILDLVQSKGEEVSEFFLYLLQQLADAYVDLRPWLLEIGFSPSLLTQSKVVVNTDPVSRYTQQLRHHLGRDSKFVLCYAQKEELLLEEIYMDTIMELVGFSNESLGSLNSLACLLDHTTGILNEQGETIFILGDAGVGKSMLLQRLQSLWATGRLDAGVKFFFHFRCRMFSCFKESDRLCLQDLLFKHYCYPERDPEEVFAFLLRFPHVALFTFDGLDELHSDLDLSRVPDSSCPWEPAHPLVLLANLLSGKLLKGASKLLTARTGIEVPRQFLRKKVLLRGFSPSHLRAYARRMFPERALQDRLLSQLEANPNLCSLCSVPLFCWIIFRCFQHFRAAFEGSPQLPDCTMTLTDVFLLVTEVHLNRMQPSSLVQRNTRSPVETLHAGRDTLCSLGQVAHRGMEKSLFVFTQEEVQASGLQERDMQLGFLRALPELGPGGDQQSYEFFHLTLQAFFTAFFLVLDDRVGTQELLRFFQEWMPPAGAATTSCYPPFLPFQCLQGSGPAREDLFKNKDHFQFTNLFLCGLLSKAKQKLLRHLVPAAALRRKRKALWAHLFSSLRGYLKSLPRVQVESFNQVQAMPTFIWMLRCIYETQSQKVGQLAARGICANYLKLTYCNACSADCSALSFVLHHFPKRLALDLDNNNLNDYGVRELQPCFSRLTVLRLSVNQITDGGVKVLSEELTKYKIVTYLGLYNNQITDVGARYVTKILDECKGLTHLKLGKNKITSEGGKYLALAVKNSKSISEVGMWGNQVGDEGAKAFAEALRNHPSLTTLSLASNGISTEGGKSLARALQQNTSLEILWLTQNELNDEVAESLAEMLKVNQTLKHLWLIQNQITAKGTAQLADALQSNTGITEICLNGNLIKPEEAKVYEDEKRIICF
notes: NOD1; the Flag-tagged plasmid is not described in the methods; source: HeLa, transiently transfected, in fixed cells
For B1, the “area covered by PLA spots, against neighbouring GFP-negative cells” value is approximately 4 fold.
